The record followed here is IntAct's records for PubMed 19513100.

The target of one assay is rb_mouse Rb1 (UniProt P13405).
In a further assay the target is fog1_human ZFPM1 (UniProt Q8IX07).
Chain of fog1_human ZFPM1 (Q8IX07 whole entry): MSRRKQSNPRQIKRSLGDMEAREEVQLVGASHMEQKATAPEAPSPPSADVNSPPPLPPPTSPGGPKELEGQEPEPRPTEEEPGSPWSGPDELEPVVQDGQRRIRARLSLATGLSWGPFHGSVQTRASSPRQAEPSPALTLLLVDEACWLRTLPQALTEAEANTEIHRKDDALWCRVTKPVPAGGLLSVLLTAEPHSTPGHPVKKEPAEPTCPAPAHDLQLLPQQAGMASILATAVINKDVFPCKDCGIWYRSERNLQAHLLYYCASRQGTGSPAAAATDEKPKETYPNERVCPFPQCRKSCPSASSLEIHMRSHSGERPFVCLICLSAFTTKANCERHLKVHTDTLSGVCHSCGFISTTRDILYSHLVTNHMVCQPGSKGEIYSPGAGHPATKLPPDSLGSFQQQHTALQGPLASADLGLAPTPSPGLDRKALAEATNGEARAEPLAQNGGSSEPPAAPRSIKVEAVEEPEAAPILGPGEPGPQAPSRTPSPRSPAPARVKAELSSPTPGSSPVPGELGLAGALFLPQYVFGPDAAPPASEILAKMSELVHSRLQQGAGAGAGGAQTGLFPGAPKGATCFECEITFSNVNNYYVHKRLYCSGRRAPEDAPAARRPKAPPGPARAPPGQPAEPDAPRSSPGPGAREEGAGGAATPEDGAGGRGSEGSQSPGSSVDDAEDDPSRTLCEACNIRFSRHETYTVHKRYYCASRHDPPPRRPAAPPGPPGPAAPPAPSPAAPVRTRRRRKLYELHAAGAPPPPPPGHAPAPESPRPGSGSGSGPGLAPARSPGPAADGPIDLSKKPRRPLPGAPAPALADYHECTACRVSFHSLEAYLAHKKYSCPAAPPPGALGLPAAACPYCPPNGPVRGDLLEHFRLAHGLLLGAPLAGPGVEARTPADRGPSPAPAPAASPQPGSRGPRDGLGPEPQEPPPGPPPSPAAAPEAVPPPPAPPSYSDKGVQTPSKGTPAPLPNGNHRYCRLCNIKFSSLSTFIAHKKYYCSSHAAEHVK

Chain of Erythroid transcription factor (Homo sapiens), P15976 C83G;E85K (P15976 whole entry C83G/E85K): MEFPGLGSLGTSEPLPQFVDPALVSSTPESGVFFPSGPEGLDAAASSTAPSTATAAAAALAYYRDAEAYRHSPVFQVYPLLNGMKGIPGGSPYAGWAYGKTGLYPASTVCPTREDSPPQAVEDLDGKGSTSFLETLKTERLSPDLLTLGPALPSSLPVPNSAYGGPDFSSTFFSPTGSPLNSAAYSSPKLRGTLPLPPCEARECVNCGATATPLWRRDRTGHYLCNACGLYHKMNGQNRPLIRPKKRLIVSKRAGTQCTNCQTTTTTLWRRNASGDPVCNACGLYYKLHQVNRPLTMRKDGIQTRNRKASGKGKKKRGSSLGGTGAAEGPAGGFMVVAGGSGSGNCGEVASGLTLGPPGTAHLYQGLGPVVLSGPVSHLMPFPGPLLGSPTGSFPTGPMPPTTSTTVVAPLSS
Chain of Erythroid transcription factor (Homo sapiens), P15976 V205G (P15976 whole entry V205G): as the sequence (P15976 whole entry C83G/E85K) above, with G83C, K85E, V205G counted along it
Chain of rb_mouse Rb1 (P13405 whole entry): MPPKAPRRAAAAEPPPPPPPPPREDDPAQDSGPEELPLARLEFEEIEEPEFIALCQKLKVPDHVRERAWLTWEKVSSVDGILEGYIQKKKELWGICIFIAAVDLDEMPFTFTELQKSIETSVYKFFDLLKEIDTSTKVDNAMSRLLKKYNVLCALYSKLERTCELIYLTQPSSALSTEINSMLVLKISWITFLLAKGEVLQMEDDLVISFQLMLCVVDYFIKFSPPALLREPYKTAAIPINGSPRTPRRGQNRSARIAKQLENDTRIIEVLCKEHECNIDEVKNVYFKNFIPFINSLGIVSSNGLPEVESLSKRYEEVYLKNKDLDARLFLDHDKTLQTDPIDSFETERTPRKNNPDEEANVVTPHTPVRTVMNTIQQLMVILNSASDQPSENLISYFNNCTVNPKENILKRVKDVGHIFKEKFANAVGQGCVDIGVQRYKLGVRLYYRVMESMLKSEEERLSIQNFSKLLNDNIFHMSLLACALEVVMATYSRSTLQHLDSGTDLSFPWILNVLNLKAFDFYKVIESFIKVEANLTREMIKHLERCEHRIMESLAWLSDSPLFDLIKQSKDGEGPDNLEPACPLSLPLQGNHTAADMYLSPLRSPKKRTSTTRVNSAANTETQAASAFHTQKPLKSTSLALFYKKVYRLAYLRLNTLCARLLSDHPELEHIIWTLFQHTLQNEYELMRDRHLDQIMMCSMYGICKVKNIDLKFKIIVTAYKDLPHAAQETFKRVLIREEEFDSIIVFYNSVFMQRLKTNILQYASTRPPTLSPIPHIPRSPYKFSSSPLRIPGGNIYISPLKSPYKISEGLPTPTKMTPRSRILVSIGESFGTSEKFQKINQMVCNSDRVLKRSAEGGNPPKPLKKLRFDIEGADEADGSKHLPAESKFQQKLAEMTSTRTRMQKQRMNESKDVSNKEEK

Regarding “Erythroid transcription factor (Homo sapiens), P15976 C83G;E85K”, the “effect of a mutation on the interaction” value with rb_mouse Rb1 is “disrupting interaction”.
For the substance “Erythroid transcription factor (Homo sapiens), P15976 V205G”, in the assay with fog1_human ZFPM1, the “effect of a mutation on the interaction” value is given as “disrupting interaction”.
